The values that follow come from paper PMC10786891, “Massively parallel profiling of RNA-targeting CRISPR-Cas13d”.

Numbering of substitutions follows the chain as printed. Numbers in names are those of the source.

T1: EsCas13d, nuclease-dead (Eubacterium siraeum, UniProt B0MS50, R295A;H300A;R849A;H854A)
T1 sequence: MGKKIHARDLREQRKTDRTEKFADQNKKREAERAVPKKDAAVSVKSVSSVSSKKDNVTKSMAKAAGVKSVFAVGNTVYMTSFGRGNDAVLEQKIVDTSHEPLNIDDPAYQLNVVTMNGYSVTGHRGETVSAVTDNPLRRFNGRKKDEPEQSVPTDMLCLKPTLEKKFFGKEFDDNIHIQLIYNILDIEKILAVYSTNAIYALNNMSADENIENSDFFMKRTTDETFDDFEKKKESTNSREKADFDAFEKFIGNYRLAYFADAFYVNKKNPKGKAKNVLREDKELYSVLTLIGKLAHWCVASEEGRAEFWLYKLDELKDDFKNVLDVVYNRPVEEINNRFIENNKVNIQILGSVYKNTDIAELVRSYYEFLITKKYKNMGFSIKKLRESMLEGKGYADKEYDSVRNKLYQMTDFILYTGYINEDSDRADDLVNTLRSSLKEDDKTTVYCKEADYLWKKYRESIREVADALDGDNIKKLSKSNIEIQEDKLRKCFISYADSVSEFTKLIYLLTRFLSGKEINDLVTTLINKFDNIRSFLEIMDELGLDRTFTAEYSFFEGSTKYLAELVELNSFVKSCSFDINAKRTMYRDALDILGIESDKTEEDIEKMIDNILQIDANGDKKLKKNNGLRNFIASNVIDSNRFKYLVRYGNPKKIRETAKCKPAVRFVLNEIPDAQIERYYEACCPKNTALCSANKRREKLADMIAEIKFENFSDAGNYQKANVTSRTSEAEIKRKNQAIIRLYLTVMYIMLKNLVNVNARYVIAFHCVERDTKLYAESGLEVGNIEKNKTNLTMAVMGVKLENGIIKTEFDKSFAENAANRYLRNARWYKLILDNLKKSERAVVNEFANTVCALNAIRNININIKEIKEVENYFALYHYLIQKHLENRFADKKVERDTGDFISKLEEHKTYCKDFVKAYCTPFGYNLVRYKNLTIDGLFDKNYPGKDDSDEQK

B1: target 1 insA 3' of 22,insC 3' of 11 (mixed)
RNA 1: CACCCGUGCAAAAAUGCAGGGGUCUAAAACUGAGCGGAUAACCUCUCUAUGG
RNA 2: GGGAAUGGAUCCACAUCUACGAAUUCGUACACAUAGAGAGGUCUAUCCGCUCACCGAGAUCGGAAGAGCACACGU
B2: target 1 insG 3' of 22,insU 3' of 1 (mixed)
RNA 1: B1 RNA 1
RNA 2: GGGAAUGGAUCCACAUCUACGAAUUCGUACGCAUAGAGAGGUUAUCCGCUCAUCCGAGAUCGGAAGAGCACACGU
B3: target 1 C4G,C22A (mixed)
RNA 1: B1 RNA 1
RNA 2: GGGAAUGGAUCCACAUCUACGAAUUCGUAACAUAGAGAGGUUAUCCGGUCACCGAGAUCGGAAGAGCACACGU
B4: target 1 G17U,C21A (mixed)
RNA 1: B1 RNA 1
RNA 2: B3 RNA 2 with A30C, C31A, G35U, G48C
B5: target 1 complement block 4-8 (mixed)
RNA 1: B1 RNA 1
RNA 2: B3 RNA 2 with A30C, U44A, C45G, C46G, G47C
B6: target 1 C2A,U8G (mixed)
RNA 1: B1 RNA 1
RNA 2: B3 RNA 2 with A30C, U44G, G48C, C50A
B7: target 1 U3A,C4G (mixed)
RNA 1: B1 RNA 1
RNA 2: B3 RNA 2 with A30C, U49A
B8: target 1 insA 3' of 12,insA 3' of 10 (mixed)
RNA 1: B1 RNA 1
RNA 2: GGGAAUGGAUCCACAUCUACGAAUUCGUACCAUAGAGAGGAUUAAUCCGCUCACCGAGAUCGGAAGAGCACACGU
B9: target 1 insU 3' of 1,insG 3' of 1 (mixed)
RNA 1: B1 RNA 1
RNA 2: GGGAAUGGAUCCACAUCUACGAAUUCGUACCAUAGAGAGGUUAUCCGCUCAUGCCGAGAUCGGAAGAGCACACGU
B10: target 1 U8C,A16C (mixed)
RNA 1: B1 RNA 1
RNA 2: B3 RNA 2 with A30C, A36C, U44C, G48C
B11: target 1 C22A (mixed)
RNA 1: B1 RNA 1
RNA 2: B3 RNA 2 with G48C
B12: target 1 del12,del13 (mixed)
RNA 1: B1 RNA 1
RNA 2: GGGAAUGGAUCCACAUCUACGAAUUCGUACCAUAGAGAUUAUCCGCUCACCGAGAUCGGAAGAGCACACGU
B13: target 1 insU 3' of 1,insC 3' of 1 (mixed)
RNA 1: B1 RNA 1
RNA 2: B9 RNA 2 with G53C
B14: target 1 insG 3' of 20,insU 3' of 2 (mixed)
RNA 1: B1 RNA 1
RNA 2: B2 RNA 2 with G31C, C32A, A33G, A52U, U53A
B15: target 1 G12A,A14G (mixed)
RNA 1: B1 RNA 1
RNA 2: B3 RNA 2 with A30C, A38G, G40A, G48C

This data set has as its target T1, EsCas13d, nuclease-dead. Nature of the data set: crRNA (strand 1, pre-loaded); Mg2+; 40 mM Tris-HCl pH 7.5, 150 mM NaCl, 6 mM MgCl2, 1 mM DTT, 0.1% Tween-20, 0.2 mg/ml BSA; 25 C; 10 min per concentration, then washed. Particulars: tags: His6-TwinStrep-SUMO cleaved; N-terminal SNAP kept (SNAP-Surface 488); label: 3' end held by stalled T7 RNA polymerase.
Turning to B1, the Kd (commonly the constant that tells how readily two partners part at equilibrium) came out at 60 ± 19 nM.

In turn, B2 yielded a Kd of 31 ± 4 nM.

As for B3, binding was put at a Kd of 5.9 ± 0.4 nM.

Molecule B4 returned a Kd of 40 ± 7 nM.

In the case of B5, the Kd stood at 9.57 ± 0.27 nM.

Molecule B6 registered a Kd of 19.4 ± 1.3 nM.

B7 returned a Kd of 5.74 ± 0.33 nM.

In turn, B8 came in with a Kd of 32 ± 7 nM.

Take B9: the Kd came out at 11.6 ± 1 nM.

For the molecule B10, the Kd worked out at 77 ± 5 nM.

For the molecule B11, the Kd came out at 13.5 ± 0.7 nM.

B12 came in with a Kd of 18.6 ± 1.8 nM.

The molecule B13 displayed a Kd of 11.6 ± 0.6 nM.

B14 registered a Kd of about 60 nM.

The molecule B15 displayed a Kd of 41 ± 6 nM.
